The results in this text go back to PMC9481563 (2022).

The labels stand for the following.
B1: CF-ppIRS1, carboxyfluorescein-labelled pY632 + pS636 IRS1 peptide (peptide)
chain: GRKGSGDYMPMSPKS
modifications: phosphotyrosine at Y632; phosphoserine at S636; C-terminal lysine-ε-carboxyfluorescein label

Where no end group is shown, it is not given here. [ ]: non-standard residue; d: D form. pY = N[C@@H](Cc1ccc(OP(=O)(O)O)cc1)C(=O)O; pT = C[C@@H](OP(=O)(O)O)[C@H](N)C(=O)O; pS = N[C@@H](COP(=O)(O)O)C(=O)O

T2 sequence (P27986 614-724): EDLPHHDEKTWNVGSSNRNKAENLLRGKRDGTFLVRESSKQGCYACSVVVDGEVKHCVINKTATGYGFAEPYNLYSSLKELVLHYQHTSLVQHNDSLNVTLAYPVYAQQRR

The target in the first experiment is T1, PIK3R1 (p85) N-terminal SH2 domain (321-433) (human, UniProt P27986 321-433). The experiment in a line: FP.
T1 sequence (P27986 321-433): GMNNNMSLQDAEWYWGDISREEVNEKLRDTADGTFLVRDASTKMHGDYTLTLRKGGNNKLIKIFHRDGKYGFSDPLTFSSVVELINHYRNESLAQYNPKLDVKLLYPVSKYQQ
With B1, the affinity, expressed as Kd, was 412 nM.

On to GRKGSGD[pY]MPMSPKS [p0IRS1, IRS1 peptide with phosphotyrosine only (pY632)], for which the equilibrium dissociation constant (Kd) (commonly the free concentration of one partner at which half of the binding sites on the other are occupied at equilibrium, for simple one-to-one binding) was 184 nM.

For the molecule GRKGSGD[pY]MPM[pS]PKS [ppIRS1, IRS1 peptide dually phosphorylated (pY632 + pS636)], binding was characterised by a dissociation constant (Kd) of 306 nM.

A further experiment concerns the target T2, PIK3R1 (p85) C-terminal SH2 domain (614-724) (human, UniProt P27986 614-724). The experiment is described as follows: FP.
As for B1, the Kd was 10.6 nM.

GRKGSGD[pY]MPMSPKS [p0IRS1, IRS1 peptide with phosphotyrosine only (pY632)]: the equilibrium dissociation constant (Kd) is 8.1 nM.

Consider GRKGSGD[pY]MPM[pS]PKS [ppIRS1, IRS1 peptide dually phosphorylated (pY632 + pS636)], for which the Kd was found to be 5.1 nM.

Another experiment concerns the target T1, PIK3R1 (p85) N-terminal SH2 domain …. The experiment in a line: FP. This is another data set of the same source.
Molecule RSRLLHSD[pY]MNMTPRR [p0CD28, CD28 peptide with phosphotyrosine only (pY191)] had a Kd of 104 nM.

Take B1: the Kd amounted to 383 nM.

The molecule RSRLLHSD[pY]MNM[pT]PRR [ppCD28, CD28 peptide dually phosphorylated (pY191 + pT195)] came in with a Kd of 285 nM. This Kd and that of the molecule before are within 1.5-fold of each other.

In another experiment the target is T2, PIK3R1 (p85) C-terminal SH2 domain …. The experiment is described as follows: FP. The source holds these as a separate data set.
RSRLLHSD[pY]MNMTPRR [p0CD28, CD28 peptide with phosphotyrosine only (pY191)] yielded a dissociation constant (Kd) of 11 nM.

Molecule B1 yielded a dissociation constant (Kd) of 5.7 nM. This Kd lies about 1.9-fold lower than the previous one.

With RSRLLHSD[pY]MNM[pT]PRR [ppCD28, CD28 peptide dually phosphorylated (pY191 + pT195)], binding was put at a Kd of 22.9 nM.
